The target in test [1] is T1, human Siglec-3 on cells (moDC, PBMC of CHB patients) (human, UniProt P20138 18-364).
T1 construct: whole, on cells; also called Siglec-3 receptor
The experiment in a line: flow cytometry on moDC with APC-conjugated anti-Siglec-3 mAb. (In general: Flow cytometry measures light scatter and fluorescence of single cells or particles in a stream.)

In test [2] the target is T1, human Siglec-3 on cells (moDC, PBMC of …). Kind of test: co-IP (IP: Siglec-3) from moDC, HBV +, 10C8 + (10C8 given 1 hour before HBV); Western blot, densitometry, normalized to the untreated control [E].
For test [3] the target is unchanged. Kind of test: co-IP (IP: Siglec-3) from moDC, HBV +, 10C8 -; Western blot, densitometry, normalized to the untreated control [E]. Background: A western blot detects proteins with antibodies after separation by electrophoresis.
Test [4] has the same target. Kind of test: co-IP (IP: Siglec-3) from moDC treated with HBV (hHBV); Western blot, densitometry, fold of Mock [A].
Test [5] has the same target. Kind of test: co-IP (IP: Siglec-3) from moDC treated with anti-Siglec-3 mAb 10C8; Western blot, densitometry, fold of Mock [A].
Test [6] shares this target. The experiment in a line: co-IP (IP: Siglec-3) from moDC treated with anti-Siglec-3 mAb 2B9; Western blot, densitometry, fold of Mock; strong band at the 72 mark [A].
Test [7] has the same target. The experiment in a line: co-IP (IP: Siglec-3) from moDC incubated with hHBV for 60 min; Western blot, densitometry, normalized to the starting point [E].
The target is the same in test [8]. The experiment in a line: co-IP (IP: Siglec-3) from moDC incubated with hHBV for 0 min; Western blot, densitometry, normalized to the starting point [E].
The target is the same in test [9]. The experiment in a line: co-IP (IP: Siglec-3) from moDC incubated with hHBV for 30 min; Western blot, densitometry, normalized to the starting point [E].
For test [10] the target is unchanged. Kind of test: co-IP (IP: Siglec-3) from moDC incubated with hHBV for 15 min; Western blot, densitometry, normalized to the starting point [E].
Test [11] has the same target. Kind of test: co-IP (IP: Siglec-3) from moDC, HBV -, 10C8 +; Western blot, densitometry, normalized to the untreated control [E].
Test [12] has the same target. Kind of test: co-IP (IP: Siglec-3) from moDC incubated 30 mins with 10^9 copies/mL hHBV; Western blot, densitometry, normalized to the first lane [F].
Test [13] has the same target. Kind of test: co-IP (IP: Siglec-3) from moDC incubated 30 mins with 0 copies/mL hHBV; Western blot, densitometry, normalized to the first lane [F].
For test [14] the target is unchanged. The experiment in a line: co-IP (IP: Siglec-3) from moDC, lane Mock; Western blot, densitometry [A].
Test [15] has the same target. Kind of test: co-IP (IP: Siglec-3) from moDC, HBV -, 10C8 -; Western blot, densitometry, normalized to the untreated control [E].
For test [16] the target is unchanged. Kind of test: co-IP (IP: Siglec-3) from moDC incubated 30 mins with 10^8 copies/mL hHBV; Western blot, densitometry, normalized to the first lane [F].
Test [17] has the same target. Kind of test: co-IP (IP: Siglec-3) from moDC incubated 30 mins with 3x10^8 copies/mL hHBV; Western blot, densitometry, normalized to the first lane [F].

T1 sequence (P20138 18-364): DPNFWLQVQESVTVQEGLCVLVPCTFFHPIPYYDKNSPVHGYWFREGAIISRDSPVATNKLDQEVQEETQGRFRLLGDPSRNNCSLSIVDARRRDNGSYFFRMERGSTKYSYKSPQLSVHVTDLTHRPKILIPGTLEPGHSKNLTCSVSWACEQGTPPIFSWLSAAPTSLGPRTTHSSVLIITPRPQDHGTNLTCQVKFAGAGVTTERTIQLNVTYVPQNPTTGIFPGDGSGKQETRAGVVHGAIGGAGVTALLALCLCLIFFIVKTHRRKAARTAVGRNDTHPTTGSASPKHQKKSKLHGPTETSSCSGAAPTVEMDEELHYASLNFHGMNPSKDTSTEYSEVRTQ

B1: anti-Siglec-3 mAb clone 10C8 (antibody, human IgG1, kappa, V domains shown)
VH: EVQLVESGGGLVQPGGSLRLSCAASGFTINNGWIHWVRQAPGKGLEWVAGIGPYGGSTFYADSVKGRFTISADTSKNTAYLQMNSLRAEDTAVYYCSRFIGSYSHMDYWGQGTLVTVSS
VL: DIQMTQSPSSLSASVGDRVTITCRASQDVYYYVAWYQQKPGKAPKLLISSAGGLYSGVPSRFSGSGSGTDFTLTISSLQPEDFATYYCQQYFNFPLTFGQGTKVEIKR
notes: the isotype control used beside it is IgG1; also called mAb 10C8; antibody 10C8
As to B1, the binding result in test [1] is on record as “binds”.

B2: SHP-1 (enzyme)
chain: not shown
As to B2, the “fold change of SHP-1 co-precipitated with Siglec-3” value (“fold change” below) in test [2] was determined as 1.2 fold; in test [3], 10 fold; in test [4] it was 2.4 fold; in test [5], 1.3 fold; in test [6], 36 fold; in test [7], 11 fold. The “fold change” value in test [8] stood at 1 fold; in test [9], 26 fold; in [10], 9.1 fold; in [11], 1.3 fold; in test [12], 14 fold; in [13] it was 1 fold. In addition, the “fold change” value in test [14] turned out to be 1 fold; in test [15], 1 fold; in test [16] it was 1.5 fold; in [17], 7.7 fold.

The record behind these values is patent US20210292413A1 (ACADEMIA SINICA, published 2021).
